Measurements reported in IntAct's records for PubMed 33452816.

B1: Pleckstrin homology domain-containing family M member 1 (Homo sapiens), Q9Y4G2 (parent)
chain: MLSVVENGLDPQAAIPVIKKKLVGSVKALQKQYVSLDTVVTSEDGDANTMCSALEAVFIHGLHAKHIRAEAGGKRKKSAHQKPLPQPVFWPLLKAVTHKHIISELEHLTFVNTDVGRCRAWLRLALNDGLMECYLKLLLQEQARLHEYYQPTALLRDAEEGEFLLSFLQGLTSLSFELSYKSAILNEWTLTPLALSGLCPLSELDPLSTSGAELQRKESLDSISHSSGSEDIEVHHSGHKIRRNQKLTASSLSLDTASSSQLSCSLNSDSCLLQENGSKSPDHCEEPMSCDSDLGTANAEDSDRSLQEVLLEFSKAQVNSVPTNGLSQETEIPTPQASLSLHGLNTSTYLHCEAPAEPLPAQAASGTQDGVHVQEPRPQAPSPLDLQQPVESTSGQQPSSTVSETAREVGQGNGLQKAQAHDGAGLKLVVSSPTSPKNKSWISEDDFYRPSREQPLESASDHPIASYRGTPGSRPGLHRHFSQEPRKNCSLGALDQACVPSPGRRQAQAAPSQGHKSFRVVHRRQMGLSNPFRGLMKLGTVERRGAMGIWKELFCELSPLEFRLYLSNEEHTCVENCSLLRCESVGPAHSDGRFELVFSGKKLALRASSQDEAEDWLDRVREALQKVRPQQEDEWVNVQYPDQPEEPPEAPQGCLSPSDLLSEPAALQGTQFDWSSAQVPEPDAIKESLLYLYMDRTWMPYIFSLSLEALKCFRIRNNEKMLSDSHGVETIRDILPDTSLGGPSFFKIITAKAVLKLQAGNAEEAALWRDLVRKVLASYLETAEEAVTLGGSLDENCQEVLKFATRENGFLLQYLVAIPMEKGLDSQGCFCAGCSRQIGFSFVRPKLCAFSGLYYCDICHQDDASVIPARIIHNWDLTKRPICRQALKFLTQIRAQPLINLQMVNASLYEHVERMHLIGRRREQLKLLGDYLGLCRSGALKELSKRLNHRNYLLESPHRFSVADLQQIADGVYEGFLKALIEFASQHVYHCDLCTQRGFICQICQHHDIIFPFEFDTTVRCAECKTVFHQSCQAVVKKGCPRCARRRKYQEQNIFA

Assays:
[1] = variants of: B1; conditions: with rab7a_canlf RAB7A
[2] = variants of: B1; conditions: with gbrap_human GABARAP

| effect of a mutation on the interaction [1] | effect of a mutation on the interaction [2] | Variant |
| --- | --- | --- |
| with no effect | with no effect | S432D;S435D |
| with no effect | with no effect | S432A;S435A |
